Measured values published in article doi:10.1101/2025.02.16.638571 (bioRxiv, 2025).

B1: mAb LN1F9 (antibody, V domains shown)
VH: EVKLVESGGGLVKPGGSLKLSCAASGFSFRNYAMSWVRQSPEKRLEWVAEVSSGGGYTYYPDTVTGRFTISRDNAKNILYLEMSSLRSEDTAMYYCTRDPDSSGYLAWFAYWGQGTLVTVSA
VL: DILLTQSPASLSASVGETVTITCRASENINSYLAWYQQKQGKSPQLLVYNAKTLAEGVPSRFSGSGSDTQFSLKINTLQPEDFGTYYCQHHSGTPYTFGGGTKLEIK
B2: mAb S2B10 (antibody, V domains shown)
VH: QMQLQESGPGLVKPSQSLSLTCTVTGYSITSDYAWNWIRQFPRNKLEWMGFITYSGSTSYNPSLKSRISLTRDTSKNQFFLQLSSVTTEDTATYYCARSGANWDWFAYWGQGTLVTVSA
VL: DIQMTQSPASLAVSLGQRATISCRASESVDNYGNSFMHWYQQKPGQPPKLLIYRASKLESGIPARFSGSGSRTDFTLTINPVEADDVATYHCQQSNEDPWTFGGGTKLEIK
B3: mAb S1E2 (antibody, V domains shown)
VH: QMQLQESGPGLVKPSQSLSLTCSVTGYSITSGYYWNWIRQFSGNKLEWMGYINHDGSKNYNPSLKNRISITRDTSKNQFFLKLNSVTTEDTATYYCARDYGSYYYPMDYWGQGTSVTVSS
VL: EIVLTQSPPIMSASPGEKVTITCSASSSVTFMHWFQQKPGTSPKLWIFSTSNLASGVPARFSGSGSGTSYSLTISRMEAEDAATYYCQQRSSYPFTFGSGTKLEIK
B4: mAb LN3D3 (antibody, V domains shown)
VH: EVKLEESGPELVKPGASVKMSCKASGYTFTNYVMHWVKQKPGQGLEWIGYVNPYNDGTQYNEKFRDKATLTSDKSSSTVYMELNSLTSEDSAVYYCTRGDYPYWVFEVWGAGTTVTVSS
VL: EIQMTQSPATLSVTPGDSVSLSCRASQSISNNLHWYQQKSHESPRLLIKYASQSISGIPSRFSGSGSGTDFTLSINNLETEDFGMYFCQHSDSWPFTFGSGTKLEIK

The binders below were run against full-length NiVM G on transfected cells (Nipah virus, Malaysia strain (NiVM), UniProt Q9IH62) (assay: flow cytometry on cells).

Binder | binding result
B1 | binds
B2 | binds
B3 | binds
B4 | binds
